experiment: soluble on expression in E. coli; label from the status in PepcDB or PDB records

Sequence	soluble on expression in E. coli
MERPISEAYFQEAKRHIPGGVSSPVRAFKAVGGTPPFLVRGEGAYVWDADGNRYLDYVMSWGPLILGHAHPKVLARVRETLERGLTFGAPSPLEVALAKKVKRAYPFVDLVRFVNSGTEATMSALRLARGYTGRPYIVKFRGNYHGHADGLLVEAGSGALTLGVPSSAGVPEEYAKLTLVLEYNDPEGLREVLKRRGEEIAAIIFEPVVGNAGVLVPTEDFLKALHEAKAYGVLLIADEVMTGFRLAFGGATELLGLKPDLVTLGKILGGGLPAAAYAGRREIMEKVAPLGPVYQAGTLSGNPLAMAAGLATLELLEENPGYYAYLEDLGARLEAGLKEVLKEKGLPHTVNRVGSMITVFFTEGPVVTFQDARRTDTELFKRFFHGLLDRGIYWPPSNFEAAFLSVAHREEDVEKTLEALRKAL	soluble
SMYMSNPTVRIAFVGKYLQDAGDTYFSVLQCFEHCQIALQVRLDILYVDSEELEGPNADEARKALLGCDGIFVPGGFGNRGVDGKCAAAQVARMNNIPYFGVCLGMQVAVIELSRNVVGWSDANSEEFNKESTHQVVRIMDCDRNKMGANMHLGACDVYIVEKSSIMAKIYSKSNIVVERHRHRYEVNTAYFEDLRKAGLCISAVTDPTFSSRCRVEAVENPSLRFFLAVQFHPEFISTPMDPAPTYLSFMAAAAKKDYVWPQKCSQRRLKQA	soluble
SLSWLTTHFVVTNRRVMFRHGVLTRSGIDIPLARINSVEFRDRIFERIFRTGTLIIESASQDPLEFYNIPRLREVHALLYHEVFDTLGSDESPS	soluble
SGKGGWLLNFLNHAKNQESVENLDKNGAVKAPSSGFKMPLHYPRYTKEDYEEMEEWRLDLLLSEYGLLAFHDNTLHEKRAFAIDTFIWPHHP	soluble
MGSDKIHHHHHHMKGKYRVGLISFSDGREYVHRELEGIVKKFEDEIAKTLEETGEVEVIRAKEIVWKPSIAKREARRLAEEGAEVTIFNYAVWAFPHFTVLASKFAPGPFLLFSNINPQYPGMVAMLSAAGALEQDGTKHYRMWGNIKDEKVLRKVMAFIRAGSTYKKLRGQRYGVFGGRSMGMYTAVPNVDLWNKIFGVDVEHIDQFEIVRRSQLIPDERARKGRLWIEEKAKAVHYDGKYLTPEKLELQIKSYHAVREIVEEMELDFVGIKGQLELTEHFVTMDVTETFLNDPYDWEGEHEPIVCATEADSDGALTMQIFKLIAKTPVLFADVRHYVEEYDVLDLCNSGNHATYFAARSFDPDENMKKVEFYPQTFYFPAGGAAVKHIAAPGKVTLGRLTREDGRYRFTVVPGEFVDFGEEKNYEIADSIQNNWPHAFLKMETPIDEFLAKYSSNHIHGVYGDYVEEIKTFCEIASIDFVLMK	not soluble
MPNPRRIVFGDVHGHFDALTALFEAIAPNERDGVYFVGDLIDRGPESAKVVDFVMENKYHCLLGNHEQMMLDAVGGFNFSPQLLHAWIYSGGKSTLESYEHQIPQSHVDWMRNLPLYLDLGDVWLVHAGVDPRLPIEEQGEAQFCWIRDEFHRYPYPYFANKLIITGHTITFTFANVEPGKLVSGPGWLDIDTGAYHPKSGWLTALELNNQEVYQAHIFTNEVRRLPLEDAVVPLEHHHHHH	soluble
MALVDQESCLRGFYSVFLRHCDVEPAIATFDGVRSPPDVVRLYPKPRYDYTLASAFLGTAVSGYITSRRDNAPNKNTGHRYVYTTSILIAVVTSVDTQHRSPSRCFMAMGESYFLQDEKCVFWLEHHHHHH	not soluble
MAISRELVDPNSSPREIEVSEPREVGITELVLRDAHQSLMATRMAMEDMVGACADIDAAGYWSVECWGGTTYDSCIRFLNEDPWERLRTFRKLMPNSRLQMLLRGQNLLGYRHYNDEVVDRFVDKSAENGMDVFRVFDAMNDPRNMAHAMAAVKKAGKHAQGTICYTISPVHTVEGYVKLAGQLLDMGADSIALKDMAALLKPQPAYDIIKAIKDTYGQKTQINLHCHSTTGVTEVSLMKAIEAGVDVVDTAISSMSLGPGHNPTESVAEMLEGTGYTTNLDYDRLHKIRDHFKAIRPKYKKFESKTLVDTSIFKSQIPGGMLSNMESQLRAQGAEDKMDEVMAEVPRVRKAAGFPPLVTPSSQIVGTQAVFNVMMGEYKRMTGEFADIMLGYYGASPADRDPKVVKLAEEQSGKKPITQRPADLLPPEWEKQSKEAATLKGFNGTDEDVLTYALFPQVAPVFFEHRAEGPHSVALTDAQLKAEAEGDEKSLAVAGPVTYNVNVGGTVREVTVQQATRASQPELAPEDPEDLEHHHHHH	soluble
MSLWQPLVLVLLVLGCCFAAPRQRQSTLVLFPGDLRTNLTDRQLAEEYLYRYGYTRVAEMRGESKSLGPALLLLQKQLSLPETGELDSATLKAMRTPRCGVPDLGRFQTFEGDLKWHHHNITYWIQNYSEDLPRAVIDDAFARAFALWSAVTPLTFTRVYSRDADIVIQFGVAEHGDGYPFDGKDGLLAHAFPPGPGIQGDAHFDDDELWSLGKGVVVPTRFGNADGAACHFPFIFEGRSYSACTTDGRSDGLPWCSTTANYDTDDRFGFCPSERLYTRDGNADGKPCQFPFIFQGQSYSACTTDGRSDGYRWCATTANYDRDKLFGFCPTRADSTVMGGNSAGELCVFPFTFLGKEYSTCTSEGRGDGRLWCATTSNFDSDKKWGFCPDQGYSLFLVAAHEFGHALGLDHSSVPEALMYPMYRFTEGPPLHKDDVNGIRHLYGPRPEPEPRPPTTTTPQPTAPPTVCPTGPPTVHPSERPTAGPTGPPSAGPTGPPTAGPSTATTVPLSPVDDACNVNIFDAIAEIGNQLYLFKDGKYWRFSEGRGSRPQGPFLIADKWPALPRKLDSVFEEPLSKKLFFFSGRQVWVYTGASVLGPRRLDKLGLGADVAQVTGALRSGRGKMLLFSGRRLWRFDVKAQMVDPRSASEVDRMFPGVPLDTHDVFQYREKAYFCQDRFYWRVSSRSELNQVDQVGYVTYDILQCPED	soluble
DRLTVVKQYVDNVLNKASDTYHGDKPSPLLADGVDPRTGQQLEWIFPDGRRAVLSNFSAQQNLMRVMSGLSQLSGDPRYQKRAEDIVRYHFQNYQDPSGLLYWGGHRFVDLKTLQPEGPSEKEMVHELKNAYPYYDLMFSVDSDATARFIRGFWNAHVYDWRILETSRHGEYGKPMGALWESKFEQQPPFFATKGLSFLNAGNDLIYSASLLYKHQQDQGALTWAKRLADQYVLPRDAKTGLGVYQFTQALKREEPTDDADTHSKFGDRAQRQFGPEFGPTALEGNMMLKGRTSTLYSENALMQLQLGKDLGPQGQDLLKWTVDGLKAFAKYAYNDQDNTFRPMIANGQDLSNYTLPRDGYYGKKGTVLKPYKAGNEFLISYARAYAIDNDPLLWKVARGIANDQGLGDIGTAPGKEVKVNMDTTNSDPYALFALLDLYHASQVADYRKLAEKIGDNIIKIRYIDGFFMASSDRQYADVDAIEPYALLALEASLRNKPQAVAPFLNGAGFTEGAYRMDDGSARVSTRDNELFLLNVGEKLQPN	soluble
MGSDKIHHHHHHMIKLSYLTSYITCPRLCYFRVHVGEKRFTELTAVREIYLSLKQGFDLDWAKKRAKALHGAFDEEAFRSAANKFIFPQIDCKSVEVDATIKSKSLGLLVSVDEIVECDGELLPLFLGLNPPENGVWFKDMVKAGAAALAGNYSKALIYYGYTGDLRPVEVTFSLKKKVIKLIERVKLIQRGFLPERKESRYCNYCSFSEDCKSRAETFASKFL	not soluble
MGSDKIHHHHHHMKIDRLISIIIVLLRRERVQAKELAEMFGVSVRTILRDVDTINLGGIPIITYQGVNGGISIAEGYRLDKSVLSAGDMATLISTLKGVAASIPDSRFDILAEKLKNPLSTSQLELLDLKSRQMIIDLSPWGTNEQLKGKITLLRQAIENYREIEFAYIDAAGTRSIRQVEPYALLLKGQSWYLFAWCLLRQDFRLFKLIRIKNLQLVNITYQPREVPMEQDYFENQWQETARPVELDLLFDKEMENVVEECFGGDIMRQDDGRIMVKVCLPENNWLYGYLLSFGGGMEVVNPPHIRSILAAIAEKIYKTYSS	not soluble
SMKDHTEGLSDKEQRFVDKLYTGLIQGQRACLAEAITLVESTHSRKKELAQVLLQKVLLYHREQEQSNKGKPLAFRVGLSGPPGAGKSTFIEYFGKMLTERGHKLSVLAVDPSSCTSGGSLLGDKTRMTELSRDMNAYIRPSPTRGTLGGVTRTTNEAILLCEGAGYDIILIETVGVGQSEFAVADMVDMFVLLLPPAGGDELQGIKRGIIEMADLVAVTKSDGDLIVPARRIQAEYVSALKLLRKRSQVWKPKVIRISARSGEGISEMWDKMKDFQDLMLASGELTAKRRKQQKVWMWNLIQESVLEHFRTHPTVREQIPLLEQKVLIGALSPGLAADFLLKAFKSRD	soluble
MGDGAVKQGFLYLQQQQTFGKKWRRFGASLYGGSDCALARLELQEGPEKPRRCEAARKVIRLSDCLRVAEAGGEASSPRDTSAFFLETKERLYLLAAPAAERGDWVQAICLLAF	soluble
MGSDKIHHHHHHMCPMQNYPYVITVSSEKGGVGKTTLATNLAIYLKALDENLPVTIFSFDNHFTVDRMFEIRGQRLTGSVADLLMESPPRDLIHTGQYGVGYIPSSASLNDLKGSIRGPMVLARLLAASRIPGVLIIDTRPDLDMLTQNALFAADRAIIPVKDMPSLENCRNIFALFEQRGLDRKSLSLIPCLVDERIKFDGPFNDQKTLLKAYAINRGYRCLDVYISKSPKVESLNTNPDGKIYPILTHAKWTEVHGQFAQLAQILINEYNATTEPRSLLFHKWLQTEESRKKEEFFARLSGIKSQCLLCGKPVSDDGDGRHSFYFEVSDGSAAGFFEEECFLTMLMTNIYNMDVSMVDDAPTVHLMRDSSRESAFVFRPASNGGAVEFHRFSLDGTLLIKKNYPLREYEGGLLRRERSRLYTLMTEALGTAGAGSSDRFILVHPVTRDNPQGILRDESYRGLTKLKQHIAAQIASS	not soluble
MGSDKIHHHHHHMRNINYFFAGSLLLLSGCQLIPNGDIPADDETNINPTLEVVSPTESDTREQVVEARDLWQRMQEGMHWEKPNEAYVAPFRQKLLANPRHLEQVFSRAEPFLYLIVDELERRGLPLELALLPAIESAFDADAISHASASGLWQLTPPMARYFGLKMNWWYDGRNDVVASTRAAADFLEYLYDRTGNNWHYAIAAYNSGEGRVLSAVRHNEKAGKPTDIWALKLPRETRNYVPNLLALADVVKHADKYGVSLPRIKNEPVVDVVEIGSQIELALAAELAGLSVSELKSLNPGFKQWATAPKGPHRLVVPVSNAPDFVVALAQTPQEQRVQWARYQIKRGDSLSVIARQFGTTPQVLKQVNQMKNNQLIAGKELVVPANGRTNASAQLASATPKQSYKVKSGDSLWKIAQAHGISVNDLKKWNSLGSKAIIRQGQLLTVWPGSKAVANTRSTTYQVKRGDSLSLIAQKFKVKISELMSWNKLSSSALQPGQTLTVMLQ	not soluble
MAYKFLSEDWIKAYAEEWNKNEKLMNDLKNFSASIKYYVEGKENDAVELIIEKGKAVSAGKADPNKRYDFELWASLENWKKLATGEMGPRAAMLTKRLKFKGSMITAMKYMGAFEESLKMMGRVPTVWDV	not soluble
MGSDKIHHHHHHMVDTHAHLHFHQFDDDRNAVISSFEENNIEFVVNVGVNLEDSKKSLDLSKTSDRIFCSVGVHPHDAKEVPEDFIEHLEKFAKDEKVVAIGETGLDFFRNISPAEVQKRVFVEQIELAGKLNLPLVVHIRDAYSEAYEILRTESLPEKRGVIHAFSSDYEWAKKFIDLGFLLGIGGPVTYPKNEALREVVKRVGLEYIVLETDCPFLPPQPFRGKRNEPKYLKYVVETISQVLGVPEAKVDEATTENARRIFLEVKE	soluble
MSVIDANALDTAAFVARYRALFEHSPWVVERAARRRPFDDVFGGLMQVVYDASPDDQLALIRAHPELAGKAAIDRTLTAASAAEQASAGLDRLDEDEFHRFHALNHAYRQRFGFPFVICVRLQDKAGILAELQRRLDAPRNDEIATALAEIGKIVHLRLEALPLEHHHHHH	soluble

Reference: the DeepSol protein solubility set
